Values of other authors, collected in PMC9405667.

What was measured:
[1] = biological target: chemerin receptor 2 (chem2) (Homo sapiens) (UniProt P46091)
[2] = biological target: chemerin receptor 1 (chem1) (Homo sapiens) (UniProt Q99788)
Chain of chemerin receptor 1 (chem1) (Homo sapiens) (Q99788 whole entry): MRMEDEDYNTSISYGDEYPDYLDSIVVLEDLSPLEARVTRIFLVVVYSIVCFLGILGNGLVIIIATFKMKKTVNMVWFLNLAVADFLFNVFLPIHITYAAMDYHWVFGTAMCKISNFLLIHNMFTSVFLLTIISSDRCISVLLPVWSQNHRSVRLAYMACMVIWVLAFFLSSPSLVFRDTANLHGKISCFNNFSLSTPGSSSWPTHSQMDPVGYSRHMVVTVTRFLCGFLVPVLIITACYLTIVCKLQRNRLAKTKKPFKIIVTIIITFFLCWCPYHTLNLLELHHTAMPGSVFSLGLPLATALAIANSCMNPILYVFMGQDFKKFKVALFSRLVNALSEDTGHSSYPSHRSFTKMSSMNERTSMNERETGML

Chain of chemerin (chem157S) (Q99969 21-157): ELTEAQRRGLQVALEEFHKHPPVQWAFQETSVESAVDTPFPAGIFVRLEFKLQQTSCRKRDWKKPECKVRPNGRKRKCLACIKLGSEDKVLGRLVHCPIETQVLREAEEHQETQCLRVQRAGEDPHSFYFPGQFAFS
Chain of chemerin receptor 2 (chem2) (Homo sapiens) (P46091 whole entry): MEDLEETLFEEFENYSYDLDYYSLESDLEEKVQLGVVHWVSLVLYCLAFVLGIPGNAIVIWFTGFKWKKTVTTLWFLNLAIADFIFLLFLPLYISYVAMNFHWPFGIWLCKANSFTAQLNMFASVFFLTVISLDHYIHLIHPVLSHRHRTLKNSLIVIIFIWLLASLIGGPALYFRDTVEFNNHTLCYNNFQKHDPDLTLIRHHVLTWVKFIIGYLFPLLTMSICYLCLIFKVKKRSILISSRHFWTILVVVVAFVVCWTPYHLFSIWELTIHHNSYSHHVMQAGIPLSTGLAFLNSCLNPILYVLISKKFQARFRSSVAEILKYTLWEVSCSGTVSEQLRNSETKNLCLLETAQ

Kd [1]: 210 pM
Kd [2]: 880 pM
Substance: chemerin (chem157S) (from UniProt Q99969)
